Measurements reported in US20180305421A1 (SHIRE HUMAN GENETIC THERAPIES, published 2018).
One block for each binder: values may come before it.

B1: follistatin-Fc human chimera FS315-hFc (Sino Biological Inc. Catalog Number 10685-H02H) (Fc fusion)
chain: GNCWLRQAKNGRCQVLYKTELSKEECCSTGRLSTSWTEEDVNDNTLFKWMIFNGGAPNCIPCKETCENVDCGPGKKCRMNKKNKPRCVCAPDCSNITWKGPVCGLDGKTYRNECALLKARCKEQPELEVQYQGRCKKTCRDVFCPGSSTCVVDQTNNAYCVTCNRICPEPASSEQYLCGNDGVTYSSACHLRKATCLLGRSIGLAYEGKCIKAKSCEDIQCTGGKKCLWDFKVGRGRCSLCDELCPDSKSDEPVCASDNATYASECAMKEAACSSGVLLEVKHSGSCNSISEDTEEEEEDEDQDYSFPISSILEWALEVLFQGP
notes: Bought fusion protein; also called Sino Biological FS315-hFc; not shown: human Fc of the bought product
B5: FS315 (R&D Systems) (other)
chain: GNCWLRQAKNGRCQVLYKTELSKEECCSTGRLSTSWTEEDVNDNTLFKWMIFNGGAPNCIPCKETCENVDCGPGKKCRMNKKNKPRCVCAPDCSNITWKGPVCGLDGKTYRNECALLKARCKEQPELEVQYQGRCKKTCRDVFCPGSSTCVVDQTNNAYCVTCNRICPEPASSEQYLCGNDGVTYSSACHLRKATCLLGRSIGLAYEGKCIKAKSCEDIQCTGGKKCLWDFKVGRGRCSLCDELCPDSKSDEPVCASDNATYASECAMKEAACSSGVLLEVKHSGSCNSISEDTEEEEEDEDQDYSFPISSILEW

Assays:
myostatin [1] = target: T1, myostatin (UniProt O14793 267-375); experiment: Biacore SPR (Table 3)
T1 sequence (looked up): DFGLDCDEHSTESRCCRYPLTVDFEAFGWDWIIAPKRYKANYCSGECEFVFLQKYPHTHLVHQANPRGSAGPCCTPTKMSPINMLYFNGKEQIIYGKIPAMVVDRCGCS
Excerpt: (§1) Specifically, commercially available follistatins (FS315, manufactured by R&D Systems and follistatin-Fc human chimera FS315-hFc, manufactured by Sino Biological), and FS315-GAG3-mFc fusion proteins were used to assess binding affinity and kinetics to activin, myostatin, and BMPs using Biacore assays. Briefly, FS315 was immobilized onto a CM5 chip, and follistatin-Fc fusion proteins were captured using human or mouse antibody capture kits (GE Healthcare). Post amine-coupling, a concentration series of activin, myostatin, or BMPs (e.g., BMP-2, -4, -6, -7, -9, -10, and GDF-1) was added as soluble analyte at 25° C. sActRTIB-hFc was used as a control. Binding affinities (Kd) and kinetics were determined using standard methods.

activin = target: T2, activin (UniProt P08476 311-426); experiment: cell-based or functional assay
T2 sequence (looked up): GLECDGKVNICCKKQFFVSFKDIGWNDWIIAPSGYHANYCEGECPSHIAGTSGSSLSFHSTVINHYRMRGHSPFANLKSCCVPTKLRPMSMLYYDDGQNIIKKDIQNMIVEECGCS

myostatin [2] = target: T1, myostatin; experiment: cell-based or functional assay
[3] = target: B1; experiment: Biacore SPR, 25 C; Fc fusion captured with antibody capture kit, ligand as soluble analyte
Excerpt: as §1

FS315 (R&D Systems) [4] = target: B5; experiment: Biacore SPR, 25 C; FS315 immobilized on CM5 chip, ligand as soluble analyte
Excerpt: as §1

myostatin [5] = target: T1, myostatin; experiment: cell-based or functional assay; remark: listed apart in the source
[6] = target: B1; experiment: Biacore SPR, 25 C; Fc fusion captured with human antibody capture kit, ligand as soluble analyte
Excerpt: as §1

FS315 (R&D Systems) [7] = target: B5; experiment: Biacore SPR, 25 C; FS315 immobilized on CM5 chip, ligand as soluble analyte; Table 3 cell for this pair: fitted KD, FS315 immobilized on CM5, BMP-10 as analyte, 25 C
Excerpt: as §1

sActRIIB-hFc = target: T3, sActRIIB-hFc (UniProt Q13705 25-134, limits assumed); experiment: Biacore SPR, 25 C; Fc fusion captured with human antibody capture kit, ligand as soluble analyte
T3 construct: Control protein in the Biacore assay; also called sActRTIB-hFc; sActRIIB-Fc; not shown: human Fc
T3 sequence (looked up): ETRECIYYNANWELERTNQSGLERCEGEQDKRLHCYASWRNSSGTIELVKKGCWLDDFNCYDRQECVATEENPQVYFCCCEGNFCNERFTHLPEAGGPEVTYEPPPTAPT
Excerpt: as §1

Binder: B1
- fold increase of binding affinity against follistatin (FS315) (myostatin [1]): ≥ 10 fold
- IC50, CAGA-luciferase reporter assay for Smad2/3 signaling (1.2 nM activin) (activin): 2900 pM
- IC50, CAGA-luciferase reporter assay for Smad2/3 signaling (1.2 nM myostatin) (myostatin [2]): 2990 pM

B3: BMP-7 (ligand, UniProt P18075 293-431, looked up)
chain: STGSKQRSQNRSKTPKNQEALRMANVAENSSSDQRQACKKHELYVSFRDLGWQDWIIAPEGYAAYYCEGECAFPLNSYMNATNHAIVQTLVHFINPETVPKPCCAPTQLNAISVLYFDDSSNVILKKYRNMVVRACGCH
- Kd (FS315 (R&D Systems) [4]): 38000 pM

B4: BMP-4 (ligand, UniProt P12644 293-408, looked up)
chain: SPKHHSQRARKKNKNCRRHSLYVDFSDVGWNDWIVAPPGYQAFYCHGDCPFPLADHLNSTNHAIVQTLVNSVNSSIPKACCVPTELSAISMLYLDEYDKVVLKNYQEMVVEGCGCR
- Kd (FS315 (R&D Systems) [4]): 14000 pM

Binder: B5
- IC50, CAGA-luciferase reporter assay for Smad2/3 signaling (1.2 nM activin) (activin): 400 pM
- IC50, CAGA-luciferase reporter assay for Smad2/3 signaling (1.2 nM myostatin) (myostatin [2]): 450 pM
- IC50 (read off the curve); CAGA-luciferase reporter in HEK293 cells, myostatin (1.2 nM)-induced Smad2/3 signalling (myostatin [5]): ~200 pM

B6: BMP-6 (ligand, UniProt P22004 382-513, looked up)
chain: QQSRNRSTQSQDVARVSSASDYNSSELKTACRKHELYVSFQDLGWQDWIIAPKGYAANYCDGECSFPLNAHMNATNHAIVQTLVHLMNPEYVPKPCCAPTKLNAISVLYFDDNSNVILKKYRNMVVRACGCH
- Kd [6]: 900 pM
- Kd (FS315 (R&D Systems) [4]): 360 pM

B7: BMP-10 (ligand, UniProt O95393 317-424, looked up)
chain: NAKGNYCKRTPLYIDFKEIGWDSWIIAPPGYEAYECRGVCNYPLAEHLTPTKHAIIQALVHLKNSQKASKACCVPTKLEPISILYLDKGVVTYKFKYEGMAVSECGCR
- Kd (FS315 (R&D Systems) [7]): 100000 pM
- Kd [6]: 150000 pM
- Kd (sActRIIB-hFc): 10 pM

Other lines, results leading:

- binding result [3]: no binding
- Kd (FS315 (R&D Systems) [4]): 440000 pM
B2: BMP-2 (ligand, UniProt P12643 283-396, looked up)
chain: QAKHKQRKRLKSSCKRHPLYVDFSDVGWNDWIVAPPGYHAFYCHGECPFPLADHLNSTNHAIVQTLVNSVNSKIPKACCVPTELSAISMLYLDENEKVVLKNYQDMVVEGCGCR

- Kd [6]: 820 pM
- Kd (sActRIIB-hFc): 340 pM
B8: GDF-11 (ligand, UniProt O95390 299-407, looked up)
chain: NLGLDCDEHSSESRCCRYPLTVDFEAFGWDWIIAPKRYKANYCSGQCEYMFMQKYPHTHLVQQANPRGSAGPCCTPTKMSPINMLYFNDKQQIIYGKIPGMVVDRCGCS

- binding result [3]: no binding
- binding result (FS315 (R&D Systems) [4]): no binding
B9: BMP-9 (ligand, UniProt Q9UK05 320-429, looked up)
chain: SAGAGSHCQKTSLRVNFEDIGWDSWIIAPKEYEAYECKGGCFFPLADDVTPTKHAIVQTLVHLKFPTKVGKACCVPTKLSPISVLYKDDMGVPTLKYHYEGMSVAECGCR
